# Assay results taken from article PMC12003865 (Scientific Reports, 2025).
# Target: the molecule itself
# Assay: co-sedimentation
protein,measurement,value
"apoA-IV 1‒70/K58E variant (domain or fragment, human) GPEVSADQVATVMWDYFSQLSNNAKEAVEHLQKSELTQQLNALFQDKLGEVNTYAGDLQEKLVPFATELHER",binding result,binds
